The values that follow come from the supplement of paper PMC9112550, “Optimization of the antimicrobial peptide Bac7 by deep mutational scanning” (BMC Biology, 2022).
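Also: peptides expressed intracellularly from a pBAD plasmid library in pooled LB shake-flask culture, induced with 0.3% L-arabinose, DNA abundance read by NGS, three biological replicates, DESeq2 with apeglm shrinkage.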

The data set concerns Escherichia coli TOP10. Kind of data set: shrunken log2 fold change of peptide-encoding DNA abundance (4.5 h post-induction vs induction); higher = less antimicrobial activity (less host growth inhibition). Conditions: time post-induction: 4.5 h; library: site-saturation at positions 5, 18, 19, 20.
Take RRIRARPPRLPRPRPRPPNHPRP: the “shrunken log2 fold change” value was 0.305.
With RRIRCRPPRLPRPRPRPFVGPRP, the “shrunken log2 fold change” value is -0.315.
For the sequence RRIRQRPPRLPRPRPRPSIMPRP, the “shrunken log2 fold change” value was -0.0993.
For RRIRDRPPRLPRPRPRPWFGPRP, the “shrunken log2 fold change” value was determined as 0.228.
RRIRDRPPRLPRPRPRPNVLPRP: the “shrunken log2 fold change” value is -0.45.
The value for RRIRERPPRLPRPRPRPDCKPRP was 0.0476; that for RRIRFRPPRLPRPRPRPRLNPRP was -0.228.
Under RRIRARPPRLPRPRPRPLNLPRP stands 0.0866; under RRIRERPPRLPRPRPRPSLWPRP, -0.151; under RRIRFRPPRLPRPRPRPGPWPRP, 0.216.
Turning to RRIRERPPRLPRPRPRPPAQPRP, the “shrunken log2 fold change” value came to 0.0318.
Under RRIRYRPPRLPRPRPRPNNPPRP stands -0.359.
The value for RRIRDRPPRLPRPRPRPGVFPRP was -0.00239.
The value for RRIRLRPPRLPRPRPRPMVDPRP was -0.00377.
RRIRVRPPRLPRPRPRPGHDPRP: the “shrunken log2 fold change” value is -0.116.
RRIRARPPRLPRPRPRPVCGPRP: the “shrunken log2 fold change” value was found to be 0.653.
On to RRIRQRPPRLPRPRPRPLSTPRP, for which the “shrunken log2 fold change” value was determined as 0.175.
Regarding RRIRSRPPRLPRPRPRPSKTPRP, the “shrunken log2 fold change” value was -0.159.
For RRIRVRPPRLPRPRPRPTKGPRP, the “shrunken log2 fold change” value came out at 0.118.
As to RRIRMRPPRLPRPRPRPVSNPRP, the “shrunken log2 fold change” value was 0.499.
For RRIRTRPPRLPRPRPRPNWSPRP, the “shrunken log2 fold change” value was found to be 0.0464.
For the sequence RRIRQRPPRLPRPRPRPAMLPRP, the “shrunken log2 fold change” value is 0.0266.
Under RRIRVRPPRLPRPRPRPNVIPRP stands -0.329.
RRIRGRPPRLPRPRPRPGWYPRP: the “shrunken log2 fold change” value is -0.0318.
Take RRIRTRPPRLPRPRPRPVDGPRP: the “shrunken log2 fold change” value came to 0.0538.
On to RRIRSRPPRLPRPRPRPEMLPRP, for which the “shrunken log2 fold change” value was 0.536.
The value for RRIRKRPPRLPRPRPRPWFAPRP was 0.171.
As for RRIRERPPRLPRPRPRPNCDPRP, the “shrunken log2 fold change” value was -0.261.
With RRIRRRPPRLPRPRPRPGLTPRP, the “shrunken log2 fold change” value turned out to be 0.508.
RRIRYRPPRLPRPRPRPMNSPRP: the “shrunken log2 fold change” value is -0.0134.
For the sequence RRIRIRPPRLPRPRPRPYIRPRP, the “shrunken log2 fold change” value is -0.159.
For RRIRGRPPRLPRPRPRPVKEPRP, the “shrunken log2 fold change” value was determined as 0.604.
The value for RRIRNRPPRLPRPRPRPANQPRP was 0.271.
On to RRIRWRPPRLPRPRPRPWMCPRP, for which the “shrunken log2 fold change” value is -0.174.
For the sequence RRIRMRPPRLPRPRPRPGSTPRP, the “shrunken log2 fold change” value was found to be 0.292.
With RRIRTRPPRLPRPRPRPDAVPRP, the “shrunken log2 fold change” value turned out to be 0.171.
Under RRIRCRPPRLPRPRPRPHASPRP stands -0.224.
For the sequence RRIRNRPPRLPRPRPRPFNTPRP, the “shrunken log2 fold change” value is -0.765.
As for RRIRNRPPRLPRPRPRPTNNPRP, the “shrunken log2 fold change” value was -0.545.
As for RRIRPRPPRLPRPRPRPCSRPRP, the “shrunken log2 fold change” value stood at 0.0759.
As to RRIRKRPPRLPRPRPRPAAAPRP, the “shrunken log2 fold change” value was 0.896.
The value for RRIRQRPPRLPRPRPRPAACPRP was 0.183; that for RRIRGRPPRLPRPRPRPQADPRP was 0.43; that for RRIRYRPPRLPRPRPRPGKMPRP was 0.00758.
The value for RRIRLRPPRLPRPRPRPIYEPRP was -0.291.
RRIRLRPPRLPRPRPRPQEWPRP: the “shrunken log2 fold change” value stood at 0.0562.
For the sequence RRIRWRPPRLPRPRPRPCVKPRP, the “shrunken log2 fold change” value was -0.0416.
Consider RRIRERPPRLPRPRPRPKQPPRP, for which the “shrunken log2 fold change” value was determined as 0.236.
Consider RRIRWRPPRLPRPRPRPQYVPRP, for which the “shrunken log2 fold change” value is 0.00889.
In the case of RRIRMRPPRLPRPRPRPADPPRP, the “shrunken log2 fold change” value turned out to be 0.36.
As to RRIRQRPPRLPRPRPRPGREPRP, the “shrunken log2 fold change” value was 0.221.
Regarding RRIRIRPPRLPRPRPRPDFIPRP, the “shrunken log2 fold change” value was -0.447.
For the sequence RRIRDRPPRLPRPRPRPWTNPRP, the “shrunken log2 fold change” value was -0.111.
On to RRIRVRPPRLPRPRPRPMIQPRP, for which the “shrunken log2 fold change” value is -0.403.
For the sequence RRIRLRPPRLPRPRPRPMIEPRP, the “shrunken log2 fold change” value was -0.00289.
As to RRIRNRPPRLPRPRPRPDVVPRP, the “shrunken log2 fold change” value is -0.0975.
Take RRIRWRPPRLPRPRPRPFPLPRP: the “shrunken log2 fold change” value is -0.297.
On to RRIRPRPPRLPRPRPRPRKEPRP, for which the “shrunken log2 fold change” value is -0.157.
Turning to RRIRSRPPRLPRPRPRPPKDPRP, the “shrunken log2 fold change” value was -0.0903.
In the case of RRIRNRPPRLPRPRPRPNDDPRP, the “shrunken log2 fold change” value amounted to 0.0813.
Under RRIRERPPRLPRPRPRPMSFPRP stands -0.314.
Consider RRIRNRPPRLPRPRPRPIQNPRP, for which the “shrunken log2 fold change” value is -0.139.
RRIRNRPPRLPRPRPRPIFRPRP: the “shrunken log2 fold change” value is -0.0067.
Under RRIRVRPPRLPRPRPRPKDPPRP stands -0.106.
The value for RRIRVRPPRLPRPRPRPMKTPRP was 0.00695.
RRIRKRPPRLPRPRPRPGFIPRP: the “shrunken log2 fold change” value was -0.307.
The value for RRIRLRPPRLPRPRPRPGVTPRP was 0.0426; that for RRIRLRPPRLPRPRPRPPKHPRP was 0.117.
Regarding RRIRRRPPRLPRPRPRPSSNPRP, the “shrunken log2 fold change” value was -0.148.
Take RRIRPRPPRLPRPRPRPCYQPRP: the “shrunken log2 fold change” value was -0.565.
As to RRIRLRPPRLPRPRPRPYYDPRP, the “shrunken log2 fold change” value was -0.379.
For the sequence RRIRNRPPRLPRPRPRPHIHPRP, the “shrunken log2 fold change” value was -0.445.
Consider RRIRARPPRLPRPRPRPVWSPRP, for which the “shrunken log2 fold change” value amounted to 0.197.
On to RRIRARPPRLPRPRPRPSLMPRP, for which the “shrunken log2 fold change” value was determined as 0.0307.
Regarding RRIRERPPRLPRPRPRPPTTPRP, the “shrunken log2 fold change” value turned out to be 0.322.
RRIRERPPRLPRPRPRPMCPPRP: the “shrunken log2 fold change” value was -0.0308.
With RRIRRRPPRLPRPRPRPMGGPRP, the “shrunken log2 fold change” value worked out at 0.083.
RRIRIRPPRLPRPRPRPHYLPRP: the “shrunken log2 fold change” value is -0.0913.
RRIRHRPPRLPRPRPRPHNEPRP: the “shrunken log2 fold change” value was -0.458.
Consider RRIRKRPPRLPRPRPRPKVMPRP, for which the “shrunken log2 fold change” value was 0.0802.
Regarding RRIRARPPRLPRPRPRPGVMPRP, the “shrunken log2 fold change” value is 0.437.
RRIRCRPPRLPRPRPRPKFFPRP: the “shrunken log2 fold change” value came out at 0.0952.
On to RRIRKRPPRLPRPRPRPWRNPRP, for which the “shrunken log2 fold change” value is -0.0406.
As for RRIRRRPPRLPRPRPRPSWEPRP, the “shrunken log2 fold change” value worked out at 0.1.
Consider RRIRSRPPRLPRPRPRPIVFPRP, for which the “shrunken log2 fold change” value was -0.0485.
On to RRIRWRPPRLPRPRPRPNSMPRP, for which the “shrunken log2 fold change” value is -0.114.
In the case of RRIRFRPPRLPRPRPRPCPEPRP, the “shrunken log2 fold change” value was -0.2.
In the case of RRIRSRPPRLPRPRPRPHDFPRP, the “shrunken log2 fold change” value is -0.0847.
RRIRKRPPRLPRPRPRPLTSPRP: the “shrunken log2 fold change” value worked out at 0.0205.
RRIRWRPPRLPRPRPRPTHTPRP: the “shrunken log2 fold change” value was -0.252.
Turning to RRIRARPPRLPRPRPRPGATPRP, the “shrunken log2 fold change” value was determined as 0.959.
Turning to RRIRDRPPRLPRPRPRPRWRPRP, the “shrunken log2 fold change” value stood at 0.605.
Turning to RRIRVRPPRLPRPRPRPKCMPRP, the “shrunken log2 fold change” value is 0.0847.
In the case of RRIRIRPPRLPRPRPRPIFRPRP, the “shrunken log2 fold change” value is -0.013.
As for RRIRRRPPRLPRPRPRPHNIPRP, the “shrunken log2 fold change” value is -0.127.
With RRIRNRPPRLPRPRPRPLKVPRP, the “shrunken log2 fold change” value turned out to be 4.47.
Take RRIRDRPPRLPRPRPRPFGEPRP: the “shrunken log2 fold change” value is -0.0214.
With RRIRIRPPRLPRPRPRPRLDPRP, the “shrunken log2 fold change” value worked out at 0.1.
Take RRIRDRPPRLPRPRPRPKHRPRP: the “shrunken log2 fold change” value came out at 0.114.
The value for RRIRARPPRLPRPRPRPIPFPRP was 0.00602; that for RRIRTRPPRLPRPRPRPGKHPRP was -0.803; that for RRIRIRPPRLPRPRPRPRHAPRP was 0.128.
On to RRIRARPPRLPRPRPRPKHLPRP, for which the “shrunken log2 fold change” value was 0.417.
Under RRIRRRPPRLPRPRPRPAWRPRP stands 0.504; under RRIRNRPPRLPRPRPRPRCDPRP, -0.203.
With RRIRMRPPRLPRPRPRPQFPPRP, the “shrunken log2 fold change” value is 0.16.
Regarding RRIRKRPPRLPRPRPRPIYNPRP, the “shrunken log2 fold change” value was -0.0567.
Turning to RRIRIRPPRLPRPRPRPIQLPRP, the “shrunken log2 fold change” value was -0.058.
In the case of RRIRKRPPRLPRPRPRPINPPRP, the “shrunken log2 fold change” value stood at 0.0583.
With RRIRPRPPRLPRPRPRPVCAPRP, the “shrunken log2 fold change” value turned out to be 0.396.
Regarding RRIRLRPPRLPRPRPRPSNYPRP, the “shrunken log2 fold change” value was -0.53.
Regarding RRIRGRPPRLPRPRPRPFVFPRP, the “shrunken log2 fold change” value came out at 0.608.
With RRIRYRPPRLPRPRPRPSTFPRP, the “shrunken log2 fold change” value was -0.282.
Regarding RRIRTRPPRLPRPRPRPQSIPRP, the “shrunken log2 fold change” value was -0.125.
For the sequence RRIRIRPPRLPRPRPRPGTNPRP, the “shrunken log2 fold change” value was -0.314.
Consider RRIRHRPPRLPRPRPRPSTYPRP, for which the “shrunken log2 fold change” value is -0.202.
In the case of RRIRCRPPRLPRPRPRPETCPRP, the “shrunken log2 fold change” value stood at 0.0181.
As to RRIRWRPPRLPRPRPRPCGDPRP, the “shrunken log2 fold change” value turned out to be 0.183.
Regarding RRIRNRPPRLPRPRPRPTAPPRP, the “shrunken log2 fold change” value turned out to be 0.517.
Regarding RRIRVRPPRLPRPRPRPICLPRP, the “shrunken log2 fold change” value is 0.0369.
As for RRIRGRPPRLPRPRPRPPPCPRP, the “shrunken log2 fold change” value is 1.16.
Turning to RRIRPRPPRLPRPRPRPQCFPRP, the “shrunken log2 fold change” value was found to be 0.185.
Turning to RRIRDRPPRLPRPRPRPHDSPRP, the “shrunken log2 fold change” value was -0.00201.
As to RRIRFRPPRLPRPRPRPWAAPRP, the “shrunken log2 fold change” value worked out at 0.385.
In the case of RRIRKRPPRLPRPRPRPWYIPRP, the “shrunken log2 fold change” value is -0.568.
